Reference: doi:10.1101/2022.05.13.491800 (bioRxiv, 2022)

B1: Smc6 (natural protein, S. cerevisiae, UniProt Q12749 1-1114, looked up)
chain: MISTTISGKRPIEQVDDELLSLTAQQENEEQQQQRKRRRHQFAPMTQFNSNTLDEDSGFRSSSDVATADQDNFLEESPSGYIKKVILRNFMCHEHFELELGSRLNFIVGNNGSGKSAILTAITIGLGAKASETNRGSSLKDLIREGCYSAKIILHLDNSKYGAYQQGIFGNEIIVERIIKRDGPASFSLRSENGKEISNKKKDIQTVVDYFSVPVSNPMCFLSQDAARSFLTASTSQDKYSHFMKGTLLQEITENLLYASAIHDSAQENMALHLENLKSLKAEYEDAKKLLRELNQTSDLNERKMLLQAKSLWIDVAHNTDACKNLENEISGIQQKVDEVTEKIRNRQEKIERYTSDGTTIEAQIDAKVIYVNEKDSEHQNARELLRDVKSRFEKEKSNQAEAQSNIDQGRKKVDALNKTIAHLEEELTKEMGGDKDQMRQELEQLEKANEKLREVNNSLVVSLQDVKNEERDIQHERESELRTISRSIQNKKVELQNIAKGNDTFLMNFDRNMDRLLRTIEQRKNEFETPAIGPLGSLVTIRKGFEKWTRSIQRAISSSLNAFVVSNPKDNRLFRDIMRSCGIRSNIPIVTYCLSQFDYSKGRAHGNYPTIVDALEFSKPEIECLFVDLSRIERIVLIEDKNEARNFLQRNPVNVNMALSLRDRRSGFQLSGGYRLDTVTYQDKIRLKVNSSSDNGTQYLKDLIEQETKELQNIRDRYEEKLSEVRSRLKEIDGRLKSTKNEMRKTNFRMTELKMNVGKVVDTGILNSKINERKNQEQAIASYEAAKEELGLKIEQIAQEAQPIKEQYDSTKLALVEAQDELQQLKEDINSRQSKIQKYKDDTIYYEDKKKVYLENIKKIEVNVAALKEGIQRQIQNACAFCSKERIENVDLPDTQEEIKRELDKVSRMIQKAEKSLGLSQEEVIALFEKCRNKYKEGQKKYMEIDEALNRLHNSLKARDQNYKNAEKGTCFDADMDFRASLKVRKFSGNLSFIKDTKSLEIYILTTNDEKARNVDTLSGGEKSFSQMALLLATWKPMRSRIIALDEFDVFMDQVNRKIGTTLIVKKLKDIARTQTIIITPQDIGKIADIDSSGVSIHRMRDPERQNNSNFYN
B2: Nse5 (natural protein, S. cerevisiae, UniProt Q03718 1-556, looked up)
chain: MDGALINSVLYVSPRNGAHYFVELTEKHLLAFEMLNSMCLLENYDHVLLFLECQFGKSHNLAVIPFDIILVLFTLSTLSEYYKEPILRANDPYNTSRETLSRRALKLLQKYLAILKEFDSEQYNLYDLELLRCQFFLAIDTLTPKKQKWGFDRFRRTKSESGVTYRQNASVDPELDQAKTFKNPYRSYISCLEQRNTILGNRLLNLKLNEPGEFINMILWTLSNSLQESTPLFLSSHEIWMPLLEILIDLFSCRQDYFIQHEVAQNVSKSLFVQRLSESPLAVFFESLNTRNFANRFSEYVFLNCDYKLPSDNYATPVHPVYNGENTIVDTYIPTIKCSPLYKSQKSLALRRKLIGSCFKLLLRVPDGHRLITPRIVADDVIQGISRTLASFNDILQFKKFFMTENLSQESYFIPLLAEGTLSEILKDTQECVVILTLVENLSDGVSFCNEVIGLVKSKCFAFTEQCSQASYEEAVLNIEKCDVCLLVLLRYLLHLIGTEAILDAKEQLEMLHAIEKNDSGRRQWAKALNLGNDPPLLYPIVSQMFGVHDKSVIIE
B3: Nse6 (natural protein, S. cerevisiae, UniProt P40026 1-464, looked up)
chain: MGSVNSSPNEEFETVPDSQISGFDSPLIPTSVGSYFRDDDDDEKVHPNFISDPENDSLNSDEEFSSLENSDLNLSGAKAESGDDFDPILKRTIISKRKAPSNNEDEEIVKTPRKLVNYVPLKIFNLGDSFDDTITTTVAKLQDLKKEILDSPRSNKSIVITSNTVAKSELQKSIKFSGSIPEIYLDVVTKETISDKYKDWHFISKNCHYEQLMDLEMKDTAYSFLFGSSRSQGKVPEFVHLKCPSITNLLVLFGVNQEKCNSLKINYEKKENSRYDNLCTIFPVNKMLKFLMYFYSDDDNDDVREFFLKAFICLILDRKVFNAMESDHRLCFKVLELFNEAHFINSYFEIVDKNDFFLHYRLLQIFPHLQSALLRRRFSEKQGRTETIQQNIIKEFNEFFDCKNYKNLLYFILTMYGSKFIPFGPKCQVTEYFKDCILDISNETTNDVEISILKGILNLFSKIR
B4: Smc5 (natural protein, S. cerevisiae, UniProt Q08204 1-1093, looked up)
chain: MTSLIDLGRYVERTHHGEDTEPRSKRVKIAKPDLSSFQPGSIIKIRLQDFVTYTLTEFNLSPSLNMIIGPNGSGKSTFVCAVCLGLAGKPEYIGRSKKVEDFIKNGQDVSKIEITLKNSPNVTDIEYIDARDETIKITRIITRSKRRSDYLINDYQVSESVVKTLVAQLNIQLDNLCQFLSQERVEEFARLKSVKLLVETIRSIDASLLDVLDELRELQGNEQSLQKDLDFKKAKIVHLRQESDKLRKSVESLRDFQNKKGEIELHSQLLPYVKVKDHKEKLNIYKEEYERAKANLRAILKDKKPFANTKKTLENQVEELTEKCSLKTDEFLKAKEKINEIFEKLNTIRDEVIKKKNQNEYYRGRTKKLQATIISTKEDFLRSQEILAQTHLPEKSVFEDIDIKRKEIINKEGEIRDLISEIDAKANAINHEMRSIQRQAESKTKSLTTTDKIGILNQDQDLKEVRDAVLMVREHPEMKDKILEPPIMTVSAINAQFAAYLAQCVDYNTSKALTVVDSDSYKLFANPILDKFKVNLRELSSADTTPPVPAETVRDLGFEGYLSDFITGDKRVMKMLCQTSKIHTIPVSRRELTPAQIKKLITPRPNGKILFKRIIHGNRLVDIKQSAYGSKQVFPTDVSIKQTNFYQGSIMSNEQKIRIENEIINLKNEYNDRKSTLDALSNQKSGYRHELSELASKNDDINREAHQLNEIRKKYTMRKSTIETLREKLDQLKREARKDVSQKIKDIDDQIQQLLLKQRHLLSKMASSMKSLKNCQKELISTQILQFEAQNMDVSMNDVIGFFNEREADLKSQYEDKKKFVKEMRDTPEFQSWMREIRSYDQDTKEKLNKVAEKYEEEGNFNLSFVQDVLDKLESEIAMVNHDESAVTILDQVTAELRELEHTVPQQSKDLETIKAKLKEDHAVLEPKLDDIVSKISARFARLFNNVGSAGAVRLEKPKDYAEWKIEIMVKFRDNAPLKKLDSHTQSGGERAVSTVLYMIALQEFTSAPFRVVDEINQGMDSRNERIVHKAMVENACAENTSQYFLITPKLLTGLHYHEKMRIHCVMAGSWIPNPSEDPKMIHFGETSNYSFD

What was measured:
[1] = molecular target: B4; experiment: SEC
[2] = molecular target: B1; experiment: co-purification

Binder	stoichiometry N [1]	binding result [2]
B1	~1	
B2	~1	
B3	~1	
B4		binds
